Reference: patent US20250049896A1 (Regeneron, published 2025)

Target: T1, Hmm-hTFRC (REGN2431), monomeric human transferrin receptor ectodomain with N-terminal hexahistidine-myc-myc … (human, UniProt P02786 89-760)
T1 construct: also called hmm.hTfR(C89-F763); His-myc-myc-hTFRC ecto
Assay: blocking ELISA, supernatant; Hmm-hTFRC binding to immobilized human holo-Tf
Description: In the blocking assay, the anti-human Transferrin goat IgG polyclonal antibody (anti-hTf pAb) was passively absorbed at a concentration of 2 micrograms/mL in PBS on a 96-well microtiter plate overnight at 4° C. […] To the same plate, human holo-Tf was then added at a concentration of 1 micrograms/mL in PBS+0.5% BSA for 2 hours at room temperature. […] After a 1-hour incubation, the mixtures were transferred to the human holo-Tf microtiter plates. […] The plates were developed using TMB substrate solution according to the manufacturer's recommended procedure and absorbance at 450 nm was measured on a Victor™ Multilabel Plate Reader.
The ability of the anti-TfR antibody to block human TFRC binding to human holo-Tf was evaluated using an ELISA-based blocking assay.

T1 sequence (P02786 other isoform, or with tags, fused parts or gaps): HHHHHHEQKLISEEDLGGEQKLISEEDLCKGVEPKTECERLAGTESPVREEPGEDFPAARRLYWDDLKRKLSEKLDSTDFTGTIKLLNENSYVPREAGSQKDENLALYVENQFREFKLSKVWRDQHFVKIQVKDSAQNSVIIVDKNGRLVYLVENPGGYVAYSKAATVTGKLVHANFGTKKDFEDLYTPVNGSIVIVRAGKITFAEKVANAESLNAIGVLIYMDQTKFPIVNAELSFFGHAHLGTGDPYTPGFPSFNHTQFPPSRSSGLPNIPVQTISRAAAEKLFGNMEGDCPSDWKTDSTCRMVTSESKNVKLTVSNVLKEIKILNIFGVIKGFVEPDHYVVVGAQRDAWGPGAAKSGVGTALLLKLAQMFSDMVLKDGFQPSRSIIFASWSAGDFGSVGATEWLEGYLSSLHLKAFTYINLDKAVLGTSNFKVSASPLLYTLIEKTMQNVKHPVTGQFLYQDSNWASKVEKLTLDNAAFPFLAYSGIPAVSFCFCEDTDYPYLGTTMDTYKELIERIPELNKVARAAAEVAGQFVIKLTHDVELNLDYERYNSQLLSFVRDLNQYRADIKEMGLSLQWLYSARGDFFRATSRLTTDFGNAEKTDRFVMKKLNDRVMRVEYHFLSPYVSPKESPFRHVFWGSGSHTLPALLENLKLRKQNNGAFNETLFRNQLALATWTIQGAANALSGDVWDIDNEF

Binder	% Blocking
12835B Fab (Fab, V domains shown, CHO supernatant) VH: EVQLVESGGGLIQPGGSLRLSCEASGFTFRNYEMNWVRQAPGKGLEWVSYISSSGNMKDYAESVKGRFTISRDNVKNSLQLQMNSLRVEDTAVYYCARDEFPYGMDVWGQGTTVTVSS VL: not shown	78%
12808B Fab (Fab, V domains shown, CHO supernatant) VH: QLQLQESGPGLVKPSETLSLTCTVSGESISSNTYYWGWIRQPPGKGLEWIGSIDYSGTTNYNPSLKSRVTISVDTSRNHFSLRLRSVTAADTAVYYCAREWGNYGYYYGMDVWGQGTTVTVSS VL: DIQMTQSPSSLSASVGDRVTINCRASQGIRNDLGWYQQKPGKAPKRLIYAASSLQSGVPLRFSGSGSGTEFTLTINNLQPEDFATYYCLSHNSYPWTFGQGTKVEIKR	16%
12841B Fab (Fab, V domains shown, CHO supernatant; also called H1H12841B) VH: EVQLVESGGGLVQPGGSLRLSCAASGFTFSNYWMNWVRQAPGKGLEWVANIKEDGGKKLYVDSVKGRFTISRDNAKNSLFLQMNSLRAEDTAVYYCAREDTTLVVDYYYYGMDVWGQGTTVTVSS VL: not shown	29%
12802B Fab (Fab, V domains shown, CHO supernatant) VH: QVQLVESGGGLVKPGGSLRLSCAASGFTFSDYFMSWIRQAPGKGLEWVSYISSTGSTINYADSVKGRFTISRDNVKNSLYLQMTSLRVEDTAVYYCTRDNWNYEYWGQGTLVTVSS VL: EIVMTQSPATLSVSPGERATLSCRASQSVSINLAWYQQKPGQAPRLLIFVASTRATGIPARFSGSGSGTEFTLTISSLQSEDFATYYCQQYDIWPYTFGQGTKLEIKR	15%
12834B Fab (Fab, V domains shown, CHO supernatant) VH: QVQLVQSGAEVKKPGASVKVSCKASGYTFTSYGISWVRQAPGQGLEWMGWISVYHGNTNYAQKFQGRVTMTTDTSTSTAYMELRSLRSDDTAVYYCAREGYYDFWSGYYPFDYWGQGTLVTVSS VL: not shown	-2%
12833B Fab (Fab, V domains shown, CHO supernatant) VH: QVQLVESGGGVVQPGRSLRLSCAASGFTFSSFGMHWVRQAPGKGLEWVIFISYDGSDKYYADSVKGRFAISRDSSKNTLYLQMNSLRAEDTAVYYCAKENGILTDSYGMDVWGQGTTVTVSS VL: not shown	64%
12808B scFv (VK-VH) (scFv, CHO supernatant; Vk-3xG4S-Vh) scFv: DIQMTQSPSSLSASVGDRVTINCRASQGIRNDLGWYQQKPGKAPKRLIYAASSLQSGVPLRFSGSGSGTEFTLTINNLQPEDFATYYCLSHNSYPWTFGQGTKVEIKGGGGSGGGGSGGGGSQLQLQESGPGLVKPSETLSLTCTVSGESISSNTYYWGWIRQPPGKGLEWIGSIDYSGTTNYNPSLKSRVTISVDTSRNHFSLRLRSVTAADTAVYYCAREWGNYGYYYGMDVWGQGTTVTVSS	18%
12816B Fab (Fab, V domains shown, CHO supernatant) VH: QVQLVESGGGLVKPGGSLRLSCAASGFTFSDYYMNWIRQAPGKGLEWVSYISSSGTTIYYADSVKGRFTISRDNAKKSLYLEMNSLRAEDTAVYYCAREGYGNDYYYYGIDVWGQGTTVTVSS VL: not shown	14%
12843B Fab (Fab, V domains shown, CHO supernatant) VH: EVQLVESGGGLVQPGGSLRLSCAASGFTFNIFEMNWVRQAPGKGLEWISYISSRGTTTYYADSVRGRFTISRDNAKNSLYLQMNSLRAEDTAVYYCARDYEATIPFDFWGQGTLVTVSS VL: not shown	10%
12812B scFv (VK-VH) (scFv, CHO supernatant; Vk-3xG4S-Vh) scFv: DIQMTQSPPSVSASVGDRVTITCRASQGISSWLAWYQQKPGKAPKLLIYAASSLQSGVPSRFSGSGSGTDFTLTISSLQPEDFATYYCQQANSFPRTFGQGTKVEIKGGGGSGGGGSGGGGSQVQLVQSGAEVKKPGSSVRVSCKASRGTFSSYAISWVRQAPGQGLEWMGGIIPIFGTANYAQKFLARVTITADESTSTAYMELSSLRSEDTAVYYCAREKGWNYFDYWGQGTLVTVSS	12%
12812B Fab (Fab, V domains shown, CHO supernatant) VH: QVQLVQSGAEVKKPGSSVRVSCKASRGTFSSYAISWVRQAPGQGLEWMGGIIPIFGTANYAQKFLARVTITADESTSTAYMELSSLRSEDTAVYYCAREKGWNYFDYWGQGTLVTVSS VL: DIQMTQSPPSVSASVGDRVTITCRASQGISSWLAWYQQKPGKAPKLLIYAASSLQSGVPSRFSGSGSGTDFTLTISSLQPEDFATYYCQQANSFPRTFGQGTKVEIKR	14%
12808B scFv (VH-VK) (scFv) QLQLQESGPGLVKPSETLSLTCTVSGESISSNTYYWGWIRQPPGKGLEWIGSIDYSGTTNYNPSLKSRVTISVDTSRNHFSLRLRSVTAADTAVYYCAREWGNYGYYYGMDVWGQGTTVTVSSDIQMTQSPSSLSASVGDRVTINCRASQGIRNDLGWYQQKPGKAPKRLIYAASSLQSGVPLRFSGSGSGTEFTLTINNLQPEDFATYYCLSHNSYPWTFGQGTKVEIK	19%
12839B Fab (Fab, V domains shown, CHO supernatant) VH: QVQLVESGGGVVQPGRSLRLSCAASGFPFSNYVMYWVRQAPGKGLEWVALIFFDGKKNYHADSVKGRFTITRDNSKNMLYLQMNSLRPEDAAVYYCAKIHCPNGVCYKGYYGMDVWGQGTTVTVSS VL: not shown	13%
12845B Fab (Fab, V domains shown, CHO supernatant) VH: EVQLVESGGGLVQPGGSLRLSCAASGFTVSNYEMNWVRQAPGKGLEWVSYISSSTSNIYYADSVKGRFTISRDNAENSLYLQMNSLRVEDTAVYYCVRDGIVVVPVGRGYYYYGLDVWGQGTTVTVSS VL: not shown	11%
12844B Fab (Fab, V domains shown, CHO supernatant) VH: EVQLVESGGSVVRPGGSLRLSCEASGFTFDDYGMSWVRQDPGKGLEWVSGINWNGDRTNYADSVKGRFIISRDNAKNSVYLQMNSLRAEDSALYHCARDQGLGVAATLDYWGQGTLVTVSS VL: not shown	20%
12802B scFv (VK-VH) (scFv, CHO supernatant; Vk-3xG4S-Vh) scFv: EIVMTQSPATLSVSPGERATLSCRASQSVSINLAWYQQKPGQAPRLLIFVASTRATGIPARFSGSGSGTEFTLTISSLQSEDFATYYCQQYDIWPYTFGQGTKLEIKGGGGSGGGGSGGGGSQVQLVESGGGLVKPGGSLRLSCAASGFTFSDYFMSWIRQAPGKGLEWVSYISSTGSTINYADSVKGRFTISRDNVKNSLYLQMTSLRVEDTAVYYCTRDNWNYEYWGQGTLVTVSS	17%

Second part, the binder after the results:

% Blocking	Binder
13%	12848B Fab (Fab, V domains shown, CHO supernatant) VH: EVQLVESGGGLVQPGRSLTLSCAASGFTFDNFGMHWVRQGPGKGLEWVSGLTWNSGVIGYADSVKGRFTISRDNAKNSLYLQMNSLRPEDTALYYCAKDIRNYGPFDYWGQGTLVTVSS VL: not shown
24%	31863B Fab (Fab, V domains shown, CHO supernatant) VH: EVQLVESGGGLVQPGGSLRLSCAASGFTFNSYAMTWVRQAPGKGLEWVSFIGGSTGNTYYAGSVKGRFTISSDNSKKTLYLQMNSLRAEDTAVYYCAKGGAARRMEYFQHWGQGTLVTVSS VL: DIQMTQSPSSLSASIGDRVTITCRASQGISNYLAWYQQKPGKVPKLLIYAASTLQSGVPSRFSGSGSGTDFTLTISSLQPEDVATYYCQNHNSVPLTFGGGTKVEIKR
16%	31874B Fab (Fab, V domains shown, CHO supernatant) VH: EVQLVESGGGLVQPGGSLRLSCAASGFAFSSYAMTWVRQAPGKGLEWVSVISGTGGSTYYADSVKGRFTISRDNSKNTLYLQMNSLRAEDTAVYYCAKGGAARRMEYFQYWGQGTLVTVSS VL: DIQMTQSPSSLSASVGDRVTITCRASQGISNYLAWYQQKPGKVPNLLIYAASTLQSGVPSRFSGSGSGTDFTLTISSLQPEDVATYYCQKYNSAPLTFGGGTKVEIKR
7%	31863B scFv (VK-VH) (scFv, CHO supernatant; Vk-3xG4S-Vh) scFv: DIQMTQSPSSLSASIGDRVTITCRASQGISNYLAWYQQKPGKVPKLLIYAASTLQSGVPSRFSGSGSGTDFTLTISSLQPEDVATYYCQNHNSVPLTFGGGTKVEIKGGGGSGGGGSGGGGSEVQLVESGGGLVQPGGSLRLSCAASGFTFNSYAMTWVRQAPGKGLEWVSFIGGSTGNTYYAGSVKGRFTISSDNSKKTLYLQMNSLRAEDTAVYYCAKGGAARRMEYFQHWGQGTLVTVSS
-1%	31874B scFv (VK-VH) (scFv, CHO supernatant; Vk-3xG4S-Vh) scFv: DIQMTQSPSSLSASVGDRVTITCRASQGISNYLAWYQQKPGKVPNLLIYAASTLQSGVPSRFSGSGSGTDFTLTISSLQPEDVATYYCQKYNSAPLTFGGGTKVEIKGGGGSGGGGSGGGGSEVQLVESGGGLVQPGGSLRLSCAASGFAFSSYAMTWVRQAPGKGLEWVSVISGTGGSTYYADSVKGRFTISRDNSKNTLYLQMNSLRAEDTAVYYCAKGGAARRMEYFQYWGQGTLVTVSS
14%	31874B scFv (VH-VK) (scFv) EVQLVESGGGLVQPGGSLRLSCAASGFAFSSYAMTWVRQAPGKGLEWVSVISGTGGSTYYADSVKGRFTISRDNSKNTLYLQMNSLRAEDTAVYYCAKGGAARRMEYFQYWGQGTLVTVSSDIQMTQSPSSLSASVGDRVTITCRASQGISNYLAWYQQKPGKVPNLLIYAASTLQSGVPSRFSGSGSGTDFTLTISSLQPEDVATYYCQKYNSAPLTFGGGTKVEIK
13%	31863B scFv (VH-VK) (scFv) EVQLVESGGGLVQPGGSLRLSCAASGFTFNSYAMTWVRQAPGKGLEWVSFIGGSTGNTYYAGSVKGRFTISSDNSKKTLYLQMNSLRAEDTAVYYCAKGGAARRMEYFQHWGQGTLVTVSSDIQMTQSPSSLSASIGDRVTITCRASQGISNYLAWYQQKPGKVPKLLIYAASTLQSGVPSRFSGSGSGTDFTLTISSLQPEDVATYYCQNHNSVPLTFGGGTKVEIK
3%	12847B Fab (Fab, V domains shown, CHO supernatant) VH: EVQLVESGGGLVQPGRSLRLSCAASGFTFDDYAMNWVRQAPGKGLEWVSGISWSSGSMDYADSVKGRFTISRDNAKNSLYLQMNSLRTEDTALYYCAKAREVGDYYGMDVWGQGTTVTVSS VL: not shown
